Assay results as given in patent US20170058042A1 (Genentech, published 2017).
Numbering of substitutions follows the chain as printed.

Key:
[1] = target: T1, human Ly6E (native, in human tumor cells, xenograft tumors and human tissues) (human, UniProt Q16553 21-101); test: cell-based or functional assay
T1 sequence: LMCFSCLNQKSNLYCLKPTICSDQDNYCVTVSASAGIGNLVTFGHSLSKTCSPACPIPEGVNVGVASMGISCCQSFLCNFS

[2] = target: T2, cynomolgus monkey Ly6E (native, in cynomolgus monkey tissues) (cynomolgus monkey, UniProt Q16553 21-101 (human entry)); test: IHC on normal cynomolgus monkey tissues
T2 construct: Endogenous protein in normal cynomolgus monkey tissue sections (IHC); also called cyno Ly6E
T2 chain: T1 sequence with A33T, I57L, V61I

B1: humanized anti-Ly6E (hu9B12 v12) ADC (MC-vc-PAB-MMAE) (antibody, V domains shown)
VH: EVQLVESGPALVKPTQTLTLTCTVSGFSLTGYSVNWIRQPPGKALEWLGMIWGDGSTDYNSALKSRLTISKDTSKNQVVLTMTNMDPVDTATYYCARDYYFNYASWFAYWGQGTLVTVSS
VL: DIQMTQSPSSLSASVGDRVTITCSASQGISNYLNWYQQKPGKTVKLLIYYTSNLHSGVPSRFSGSGSGTDYTLTISSLQPEDFATYYCQQYSELPWTFGQGTKVEIK
For B1, the “EC50 (cell killing, CellTiter-Glo, HCC1569 X2 cells, 5 days)” value [1] was 4 nM.

B2: rabbit anti-Ly6E antibody clone GEN-93-8-1 (antibody, V domains shown)
VH: QSVEESGGRLVTPGTPLTLTCATSGFSLSIYDMTWVRQAPGKGLEWIGVIYTSGGAYYANWAKGRFTISRTSTTVDLRMTSPTTEDTATYFCVRNWAHGSDLWGQGTLVTVSS
VL: DPVVTQTPSSASAAVGGTVSISCQSSQSVYNNNYLGWYQQKPGQPPKLLIYDASKLASGVPSRFKASGSGTQFALTISDLECDDAATYYCVGGYPGSLNVFGGGTEVVVK
notes: Rabbit monoclonal IgG; also called antibody GEN-93-8-1
B2: binds [2].
